Measured values: the DeepSol protein solubility set

test: soluble on expression in E. coli; label from the status in PepcDB or PDB records

Sequence	soluble on expression in E. coli
MGHHHHHHSHMFKNTFQSGFLSILYSIGSKPLQIWDKKVRNGHIKRITDNDIQSLVLEIEGTNVSTTYITCPADPKKTLGIKLPFLVMIIKNLKKYFTFEVQVLDDKNVRRRFRASNYQSTTRVKPFICTMPMRLDDGWNQIQFNLLDFTRRAYGTNYIETLRVQIHANCRIRRVYFSDRLYSEDELPAEFKLYLPVQNKAKQ	soluble
MHHHHHHSSGVDLGTENLYFQSMSAQNNAKVAVLGASGGIGQPLSLLLKNSPLVSRLTLYDIAHTPGVAADLSHIETKAAVKGYLGPEQLPDCLKGCDVVVIPAGVPRKPGMTRDDLFNTNATIVATLTAACAQHCPEAMICVIANPVNSTIPITAEVFKKHGVYNPNKIFGVTTLDIVRANTFVAELKGLDPARVNVPVIGGHAGKTIIPLISQCTPKVDFPQDQLTALTGRIQEAGTEVVKAKAGAGSATLSMAYAGARFVFSLVDAMNGKEGVVECSFVKSQETECTYFSTPLLLGKKGIEKNLGIGKVSSFEEKMISDAIPELKASIKKGEDFVKTLK	soluble
MAMPEKSSDVKPTEECGSFPEIIELNVGGQVYITRYPTLISIPGSRLWEMFSVKNPCSLIQDNKGRFFIDRDGFLFRYVLDYMRDMQVVLPDHFPECGRLHREAEYFKLPELAKMLAPKMNKLNSIGNDSCPIDLEELSPSIDTTFNFSSTNSIHISGPDNPMVLRAAPGSELKKAGFITIGYRGSYTLGRDSQADAKFRRVARIMVCGKISLAKEVFGDTLNESRDPDRPPERYTSRYYLKFTFLEQAFDKLADAGFHMVACNSTGTCTVTHDQTDDRIWTSYTEYVFYRE	soluble
MAGHSHWAQIKHKKAKVDAQRGKLFSKLIREIIVATRLGGPNPEFNPRLRTAIEQAKKANMPWENIERAIKKGAGELEGEQFEEVIYEGYAPGGVAVMVLATTDNRNRTTSEVRHVFTKHGGNLGASGCVSYLFERKGYIEVPAKEVSEEELLEKAIEVGAEDVQPGEEVHIIYTVPEELYEVKENLEKLGVPIEKAQITWKPISTVQINDEETAQKVIKLLNALEELDDVQQVIANFEIPEEILQKVG	soluble
MIEFRDVWFWYQEGKTVLKSISFSFSEGTLAIVGPNGSGKTTLVKMLNGLLKPKKGNVLIDGINTKEVSVAELSRIVGYVFQNPDAMFFEENVFKEVAFGPKNLGLNEEEVKKRVRWALEAVGLRGFENRNPFELSGGEKQRLAIACILAMKPKYLVLDEPNTGLDERGLQDLINVIKNLRREGSSIILVTHDIELVLEVADKVLLLKDGELKFFGSTKEFFELDLEGFGLKEPELVKISKDVGINFVRNVEELLKVIGL	soluble
MGTIADIVVTEQNAERFWIVVHRDGAPSLRLTVDQDVLLQFRLKKGMEISDDLLQHIVYADEVKKAYQQALYFLAHRMRSEHEVAAHLRKKGAPDSVIDEVLKKLRAERYVDDEAFAAAYVRTQKKTAAKGPLLIRAELERLGVLGCLIEQSLAEYTLDEQMAIARSLYEKAKKQRLAESARAFLERVRQQLMRKGFPHEVIAAVLADGGAHTEQEEREALSVQAEKAHRRYAHHPRPLYEQKMRQALYRKGFALDLINEWLRMHGNDE	not soluble
MGSDKIHHHHHHMSGQCLYILRNRTNWHVNRLRVFTPSQEGGASVCKRTTRRAADTIPRNIDSCCDRVLRNGILRRSRAAPTNRDTNMLHQNNGFHANALLGSLADDSLRALAPHLELVKIKSAQLLCETDEPMRHLYFPTTAMMSVLYLMEDGAMVEVAAVGNEGVVGVSTLADYGCGGASGRIEVRSGGYAYRVSTQVFRREFDRSLDTFQLMLRYWQAAMTQIARGALCNRHHSVSEQLSRWLLLAHDRVEGDELAVTQQTIANMLGVRREGITEAAGKLQEAGLIRQRRGHITVLDREGLEARACECYGVIRGEFNRLILEARRDAHAPQPIPAEGRPLRVAGYHGAVRSAA	not soluble
MSAPLIDKYRKMATFDWKKLKAAVEGEEHVRLKSEVVAKMKSEPVFHRDYRVLSREEQREVVHQRWKKIVEWGLFKDPYSDLENFHALTETLEAYDQGTSARLFLHGNVFGAAVKSMGTDRHKDLIQKTENNEIVGAFCLTEVGHGSNTAEIQTTATFDNGELVFNTPSVSAIKCWAGNLAHSATHVVVYAQLHVEGKNEGFHGFVIQVRCPRTFQTLPGITIGDMGSKPGCWQGVENGWMEFKNHRAPLSALLNKGCDITPDGKYVTSFKSASEKQSVSLGTLSVGRLGIIAKGMMACTFASTIAIRYSVARRQFGPVKGAENEIPVLEYPLQQYRLFPYLSAAICIRIFQKKFVGHFTEYMMRVIMGEKSDELSEFSKEVHALSSGAKPVATWLGVESLGEARKACGGHGYLQMSRLNTLRDDNDPSQTFEGENFMILQQTSNILLGKAQSIGSIETPMSTMSFLNQKPSKFSSWSSNPVNDVLSAYRYLTYHLLQTTSAEAYRLKASGKNSFEVRNEIQIHRAVNLSVAYTEHTMIHWVQQFLKEIEDQSVKPVLQKVLNLFSLFLLERHLATLYITGYASGGKFGEDLREKLRLAVAELKPEAIALVDSIAPDDFILHSALGASDGKAYEHIMEEFRKYTNEQPRWVCDLAQFLQKRSQGSKL	not soluble
MGSDKIHHHHHHMSSIVLAVGNGKTLFGGSGVAPDADLVRFVDPESPIINAFDLCALRGDGIFEATTVWRGFPVSLENHLKRLANSARLVDMPEPNIPALTRAVQLVIDQYDDPEPGPMLRIIVSRGLDPDTGVGKAADRTPTVYIFLDAKGTLHSLEPITMASMTRGYPSDITARAPWLLNGAKTLSYAFNCAVHRECARRGVGDAILFTEDGYTMECPNSSIVARYGDTFVTPDPRIGILNGTSQREMFAWALEEGKKAEYRKLPIAELREADSLYMTHGGWSIPISAIDGRALAVDAAEIQAINDAIHSGRTHEDALKIGPTGDYE	not soluble
MTKLTIFYDGTCPLCAKEMKALRQHDHKQEINTVDIYSDAFSAYPQINPDRANTILHALDNQGNLLLGLDVTYRAWQLVGRGWLYAPLRWPLIRPVADWLYLRFAQNRYRISYWLTGTSRCNSGRCSRLEHHHHHH	soluble
MHHHHHHMVGFGELKEEWRGEVVHLSWSPRAFLLKNFLSDEECDYIVEKARPKMVKSSVVDNESGKSVDSEIRTSTGTWFAKGEDSVISKIEKRVAQVTMIPLENHEGLQVLHYHDGQKYEPHYDYFHDPVNAGPEHGGQRVVTMLMYLTTVEEGGETVLPNAEQKVTGDGWSECAKRGLAVKPIKGDALMFYSLKPDGSNDPASLHGSCPTLKGDKWSATKWIHVAPIGGRH	soluble
MGEQSHEKDHDEAHSYNPFVRSAVEYDADTRLQMAENAASARKLFVSSALKDIIVNPENFYHDFQQSAQMAEDANQRRQVSYNTKREAHIHQLKAQGLPLPSNIPMIEINPTRVTLNMEFESQYYSLMTSDNGDHENVASIMAETNTLIQLPDRSVGGTTPDPFAQQVTITGYFGDVDRARMLMRRNCHFTVFMALSKMKMPLHELQAHVRQNPIQNVEMSFVDAPEKNGIVTTYLRITAREKNQHELIEAAKRLNEILFRESPAPENNFTLHFTLSTYYVDQVLGSSSTAQLMPVIERETTTIISYPCYNNRNETRGNIYEIKVVGNIDNVLKARRYIMDLLPISMCFNIKNTDMAEPSRVSDRNIHMIIDESGIILKMTPSVYEPADLLSGEVPLNCASLRSKEFNIKKLYTAYQKVLSKKFDFIAPQPNDYDNSIWHHSLPANFLKNFNMPCRGELSDGSNGRRHRSSSIASSRSKHSYMSKGKQFSESSGGPSRSHTRVSSFSENSSTVPIMQFPTPHFAPPMLTPHHHMLKYVYLQQHQQAQTFLKGAAGLHPGTHIMFPPPIIVDGSFVSALPFADPVVFDGFPYVHGLFPVNEAEQHRNHRESSPSLRSTQEIRKPSRNMGNRPSSSTGSYYPSTTPRQRVYEQVREDDLRSHIGSRRTSVNGDDQNVESMHDQGYERQYPRQHQRLQKDDQQRWKTGSRGDIHSSRTINVHRDVRNSNEYDFHVGNSGPAKRSPSLEQVQLQMTHHLKLKSNDVDLDHEKLYMHESPHNDSDTTVSASGFGNDLMDGDFVQRFLSNANINESGRRPRTVSCFTEKDGQSARYIDSDGAYSVVDHASTHQSRSYDSFRKVGDNGVTKTILEPRARVEKDYGKISLEHKTKYSNEYGDEEKSAENDTSSLGSRQYRIDPMKRNIYILRNRDFSNSFFYFLHQFSLYMNPICAYRIRLHQFLSYKPSICLSRISLYPRDLYD	not soluble
MKYILVTGGVISGIGKGIIASSIGTILKSCGLRVTAIKIDPYINIDAGTFSPYEHGEVFVLNDGGEVDLDLGNYERFLDINLYKDNNITTGKIYQHVINKERRGDYLGKTVQVVPHITDAVQEWVMNQAKVPVDGNKEEPQICVIELGGTIGDIEGMPFVEAFRQFQFKAKRENFCNIHVSLVPQLSATGEQKTKPTQNSVRALRGLGLSPDLIVCRSSTPIEMAVKEKISMFCHVNPEQVICIHDVSSTYRVPVLLEEQSIVKYFKERLHLPIGAHHHHHH	soluble
SLEHFDDKSQLKRNGFYFSYNVDKENIEHWISAILFQVLKDKEDIVILSLGVDTLVGDSLGPLVGSILKRNGIPNVYGTLDRTVNASNIIKILDEIHERFKNPYILVVDAAVTAENNINDIVLRNGGFTPGFGVYRQLPTVGDFSLVGVVNKEDEREHNLIELLKKCRFDEVLKLARIISKILVLTFARMNKGDK	soluble
MSDQPIVLTSFYPKEGGARDKILLDGKNFGTDVSKIKVYFNNARASVVSSSGSRIYAIVPRLPGDNPRISVVVDTDSVAYEETYAYHTQALVSTVTGNGETSFLAGTLSTAQVYGKYLDLDAEGNLFMSWRDGGTFGIARINEQQNIVTPLIEADAANRILYANGLTVDRATGMLTAAHESVKEVTFTFDPREAWYPRQRNIKYSQSDLNSIVDADRYKNFVTFCPYDGYLYTRYRDGKIAKIDPNTFEGHIIHQGPSGSQYGQAINPAKPWLLYITLHSNAPTAYRQGISVLDLRDPDGTGGFKRLNAPGGSAFRDGPIEDALFNYPKDIKFDNDGNMFVADYGNHCIRMISADNIVTTVAGQPGVAGYKDGGPVESLFKNPWGVAVNEQGDIYIADWGNARIRKLVIELEHHHHHH	soluble
MSTDLQHIRIGLTNNHPCSYLPERQERVAVALDAELHTEQNYQLLMANGFRRSGDTIYKPHCERCHACQPIRISIPDFVLSRSQKRLLSKAKSLRWEMKTEMDAEWFELYSRYICKRHKNGTMYPPKRDEFSRFAQTTWLTTLFLHIYDESNQLLGVAVTDVMAQCSSAFYTFFEPDYPLSLGTLAVLYQVNYCQQNNEQWLYLGYQIDECPAMNYKTRFQRHQRLVNQRWQGLEHHHHHH	soluble
LMENGPEFKIEVSILKDVATVMIDTTGSSLFKRGYRTEKGGAPIKENMAAAILQLSNWYPDKPLIDPTCGSGTFCIEAVMIARKMAPGLRRSFAFEEWNWISDRLIQEVRTEAAKKVDRELELDIMGCDIDARMVEIAKANAQVAGVAGDITFKQMRVQDLRSDKINGVIISNPPYGERLSDDAGVTKLYAEMGQVFAPLKTWSKFILTSDEAFESKYGSQADKKRKLYNGTLKVDLYQYFGQRVKRQEVK	not soluble
MPKASDIKKGSAIEHNGKVFFVKEISKLTPSGRAGATLFRMRMYDVATGAKSDESFKADDMINLADFSRRSATFSYVDGNEYVFMDSEDYTPYNFNKEAIEEELLFITEETQGLQILIVDGAPVAIELPSAVDLEIVETAPSIKGASASARTKPATMTTGLTVQVPEYIANGEKVKINTTEHKFMSRALEHHHHHH	not soluble
GPGSMTTSDELPANGELDQPERIPDVVECERLKKAGNDLFAADRVAEALELYREAIKHAPLKPVKKPTQHRQDEVPPCGSEGTAQNSIGESSVVSEKSSAPGTEKSSKVGADDAAQDGDDDGIDYTLTSQVYCNAGLCLSKQGMPEDAITHLSEAIRHNKQYSKAYYRRAECYYVLGKWSNAYGDYEEYEKLGGTLDAGSQDRKRQAKAKVDEEMQKMLGELKNMGNRFLNYFGLSTDNFKFDKDPNTGGYSVRFEQ	not soluble
